We go through three proteins from PMC6297355, “Myopathy associated BAG3 mutations lead to protein aggregation by stalling Hsp70 networks” (Nature Communications, 2018).

The data set deals with the molecule itself. Nature of the data set: SEC-MALS; 30 µM BAG3 solutions separated on Shodex 804, in-line DAWN HELEOS and Optilab rEX detectors. (In general: Size exclusion chromatography separates by hydrodynamic size, large species first.)

B1: BAG3^P209L (recombinant) (natural protein)
chain: not shown
notes: BAG3, human, disease mutation P209L in the second IPV motif; Forms soluble higher order oligomers by SEC-MALS; source: E. coli BL21(DE3), purified (Ni-NTA, TEV cleavage, MonoQ)
B1: the binding result is listed as “binds”.

B2: BAG3^P209W (recombinant) (natural protein)
chain: not shown
notes: BAG3, human, P209W; source: E. coli BL21(DE3), purified (Ni-NTA, TEV cleavage, MonoQ)
In the case of B2, the binding result is reported as “binds”.

B3: BAG3^P209I (recombinant) (natural protein)
chain: not shown
notes: BAG3, human, P209I; source: E. coli BL21(DE3), purified (Ni-NTA, TEV cleavage, MonoQ)
For B3, the binding result is listed as “binds”.
